To fix the notation:
B1: CPEB3 Ribozyme (parent)
chain: GGGGGCCACAGCAGAAGCGUUCACGUCGCGGCCCCUGUCAGAUUCUGGUGAAUCUGCGAAUUCUGCUGU

Variants of B1 are the subject of the data set. Put plainly: self-cleavage, relative activity (ratio to wild type); higher = more cleavage; co-transcriptional.
In the case of GGGGGCCACAGCAGAAGCGUUCACGUCGUGGCCCCUGUCAGAGUCUGGUGAAUCUGCGAAUUCUGCUGU, the self-cleavage stood at 0.168.

For GGGGGCCACAGCAGAAGCGUUCACGUCGCAGCCCCUGUCAUAUUCUGGUGAAUCUGCGAAUUCUGCUGU, the self-cleavage amounted to 0.341.

In the case of GGGGGCCACAGCAGAAGCGUUCACGUCGUGGCCCCCGUCAGAUUCUGGUGAAUCUGCGAAUUCUGCUGU, the self-cleavage was found to be 0.244.

Regarding GGGGGCCACAGCAGAAGCGUUCACGUCGUGGCCCCGGUCAGAUUCUGGUGAAUCUGCGAAUUCUGCUGU, the self-cleavage turned out to be 0.147.

As to GGGGGCCACAGCAGAAGCGUUCACGUCGUAGCCCCUGUCAGAUUCUGGUGAAUCUGCGAAUUCUGCUGU, the self-cleavage was 0.283.

For the variant GGGGGCCACAGCAGAAGCGUUCACGUCGCAGCCCCUGUCAGAUUCUGGUGAGUCUGCGAAUUCUGCUGU, the self-cleavage amounted to 0.852.

Consider GGGGGCCACAGCAGAAGCGUUCACGUCGCAGCCCCCGUCAGAUUCUGGUGAAUCUGCGAAUUCUGCUGU, for which the self-cleavage came out at 0.449.

In the case of GGGGGCCACAGCAGAAGCGUUCACGUCGCAGCCCCGGUCAGAUUCUGGUGAAUCUGCGAAUUCUGCUGU, the self-cleavage amounted to 0.166.

As to GGGGGCCACAGCAGAAGCGUUCACGUCGCAGCCCCUGUCAGAUUCUGGUGAAUCUGCGAAUUCUGCUCU, the self-cleavage was found to be 1.01.

With GGGGGCCACAGCAGAAGCGUUCACGUCGCAGCCCCUGUCAGAUUCUGGUGAAUCUGCGAAUUCUGCUUU, the self-cleavage was 1.

Take GGGGGCCACAGCAGAAGCGUUCACGUCGCAGCCCCUGUCAGAUUCUGGUGAAUCUGAGAAUUCUGCUGU: the self-cleavage was 0.258.

GGGGGCCACAGCAGAAGCGUUCACGUCGCAGCCCCUGUCAGAUUCUGGUGAAUCUGGGAAUUCUGCUGU: the self-cleavage came to 0.247.

For the variant GGGGGCCACAGCAGAAGCGUUCACGUCGUGGCCCCUGUCAGAUUCUGCUGAAUCUGCGAAUUCUGCUGU, the self-cleavage was 0.61.

As for GGGGGCCACAGCAGAAGCGUUCACGUCGCAGCCCCUGUCAGAUUCUGGUGAAUCUGCGCAUUCUGCUGU, the self-cleavage was found to be 0.275.

Consider GGGGGCCACAGCAGAAGCGUUCACGUCGCAGCCCCUGUCAGAUUCUGGUGAAUCUGCGGAUUCUGCUGU, for which the self-cleavage came to 0.708.

As for GGGGGCCACAGCAGAAGCGUUCACGUCGCAGCCCCUGUCAGAUUCUGAUGAAUCUGCGAAUUCUGCUGU, the self-cleavage amounted to 0.951.

Take GGGGGCCACAGCAGAAGCGUUCACGUCGCAACCCCUGUCAGAUUCUGGUGAAUCUGCGAAUUCUGCUGU: the self-cleavage was found to be 0.365.

Regarding GGGGGCCACAGCAGAAGCGUUCACGUCGCAUCCCCUGUCAGAUUCUGGUGAAUCUGCGAAUUCUGCUGU, the self-cleavage is 0.215.

With GGGGGCCACAGCAGAAGCGUUCACGUCGUGGCCCCUGUCAGAUUCUGGUGAAUCUGCGAAUUCGGCUGU, the self-cleavage is 0.206.

Consider GGGGGCCACAGCAGAAGCGUUCACGUCGUGGCCCCUGUCAGAUUCUGGUGAAUCUGCGAAUUCAGCUGU, for which the self-cleavage was 0.171.

For the variant GGGGGCCACAGCAGAAGCGUUCACGUCGUGGCCCCUGUCAGAUACUGGUGAAUCUGCGAAUUCUGCUGU, the self-cleavage turned out to be 0.26.

Consider GGGGGCCACAGCAGAAGCGUUCACGUCGUGCCCCCUGUCAGAUUCUGGUGAAUCUGCGAAUUCUGCUGU, for which the self-cleavage is 0.158.

On to GGGGGCCACAGCAGAAGCGUUCACGUCGUGGCCCCUGUCAGAUUCUGGUGAAUCUGCGAACUCUGCUGU, for which the self-cleavage stood at 0.183.

In the case of GGGGGCCACAGCAGAAGCGUUCACGUCGUGGCCCAUGUCAGAUUCUGGUGAAUCUGCGAAUUCUGCUGU, the self-cleavage stood at 0.186.

As for GGGGGCCACAGCAGAAGCGUUCACGUCGUGGCCCGUGUCAGAUUCUGGUGAAUCUGCGAAUUCUGCUGU, the self-cleavage was 0.237.

Consider GGGGGCCACAGCAGAAGCGUUCACGUCGUGGCCCCUGUCAGAUUCUGGUGAAUAUGCGAAUUCUGCUGU, for which the self-cleavage was 0.169.

Regarding GGGGGCCACAGCAGAAGCGUUCACGUCGCAGCCCCUGUCAGAUUCUGGUGAAUCUGCGAUUUCUGCUGU, the self-cleavage was 0.367.

In the case of GGGGGCCACAGCAGAAGCGUUCACGUCGCAGCCCCUGUCAGAUUCUGGUGAAUCUGCGAGUUCUGCUGU, the self-cleavage was 0.395.

Regarding GGGGGCCACAGCAGAAGCGUUCACGUCGCAGCCCCUGUCAGAUUCUGGUGAAUCUGCGAAUUCUGAUGU, the self-cleavage is 0.559.

For the variant GGGGGCCACAGCAGAAGCGUUCACGUCGCAGCCCCUGUCAGAUUCUGGUGAAUCUGCGAAUUCUUCUGU, the self-cleavage amounted to 0.436.

Consider GGGGGCCACAGCAGAAGCGUUCACGUCGCAGCCCCUGUCAGAUUAUGGUGAAUCUGCGAAUUCUGCUGU, for which the self-cleavage turned out to be 0.807.

As for GGGGGCCACAGCAGAAGCGUUCACGUCGUGGCCCCUGUCAGAUUCUGGUGAAUCUGCGAAUUAUGCUGU, the self-cleavage was 0.176.

Consider GGGGGCCACAGCAGAAGCGUUCACGUCGUGGCCCCUGUCAGAUUCUGGUGAAUCUGCGAAUUGUGCUGU, for which the self-cleavage worked out at 0.198.

As for GGGGGCCACAGCAGAAGCGUUCACGUCGUGGCCCCUGUCAGAUUCUGGUGAACCUGCGAAUUCUGCUGU, the self-cleavage is 0.143.

Regarding GGGGGCCACAGCAGAAGCGUUCACGUCGUGGCCCCUGUCAGAUUCUGGUGAAACUGCGAAUUCUGCUGU, the self-cleavage came out at 0.267.

With GGGGGCCACAGCAGAAGCGUUCACGUCGUGGCCCCUGUCAGAUUCUGGUGAAGCUGCGAAUUCUGCUGU, the self-cleavage is 0.264.

GGGGGCCACAGCAGAAGCGUUCACGUCGUGGCCCCUGUGAGAUUCUGGUGAAUCUGCGAAUUCUGCUGU: the self-cleavage turned out to be 0.163.

For the variant GGGGGCCACAGCAGAAGCGUUCACGUCGCAGCCGCUGUCAGAUUCUGGUGAAUCUGCGAAUUCUGCUGU, the self-cleavage amounted to 0.278.

As for GGGGGCCACAGCAGAAGCGUUCACGUCGCAGCCACUGUCAGAUUCUGGUGAAUCUGCGAAUUCUGCUGU, the self-cleavage came to 0.286.
